Assay results as given in paper PMC3808539 (2013).
Substitutions are numbered along the chain they refer to. Numbers in names are those of the source. Blank lines part the entries; values can stand above or below the binder they belong to. Ends that are not written are not given here.

Tests used:
[1] = molecular target: peptide having an Ala-Tyr-Ala C terminus; assay: ITC
[2] = molecular target: peptide having an Ala-Tyr-Ala C terminus; assay: ITC; peptide …
FMLLRRKAYV = molecular target: T1, FMLLRRKAYV (Bacillus subtilis); assay: ITC
T1 chain: FMLLRRKAYV-OH

Kd [1]: 40 µM
B1: CtpB R168F (enzyme)
chain: MADSERDKAMDKIEKAYELISNEYVEKVDREKLLEGAIQGMLSTLNDPYSVYMDKQTAKQFSDSLDSSFEGIGAEVGMEDGKIIIVSPFKKSPAEKAGLKPNDEIISINGESMAGKDLNHAVLKIFGKKGSSVSMKIQRPGTKKQLSFRIKRAEIPLETVFASEKKVQGHSVGYIAISTFSEHTAEDFAKALRELEKKEIEGLVIDVRGNPGGYLQSVEEILKHFVTKDQPYIQIAERNGDKKRYFSTLTHKKAYPVNVITDKGSASASEILAGALKEAGHYDVVGDTSFGKGTVQQAVPMGDGSNIKLTLYKWLTPNGNWIHKKGIEPTIAIKQPDYFSAGPLQLKEPLKVDMNNEDVKHAQVLLKGLSFDPGREDGYFSKDMKKAVMAFQDQNKLNKTGVIDTRTAETLNQQIEKKKSDEKNDLQLQTALKSLFVNLEHHHHHH

Kd [1]: 21 µM
B2: CtpB R168A (enzyme)
chain: B1 chain with F126A

Kd [2]: 6.5 µM
B3: CtpB S309A, proteolytically inactive mutant (enzyme)
chain: B1 chain with F126R, A185T, L215I, S267A, V402I

Kd (FMLLRRKAYV): 0.9 µM
Kd [2]: 2.3 µM
B4: isolated PDZ domain of CtpB (domain or fragment)
chain: SVYMDKQTAKQFSDSLDSSFEGIGAEVGMEDGKIIIVSPFKKSPAEKAGLKPNDEIISINGESMAGKDLNHAVLKIRGKKGSSVSMKIQRP
